Laboratory results published in patent US20220162293A1 (UNIVERSITY OF BRITISH COLUMBIA, published 2022).

Experiments:
[1] = biological target: T1, cyclo(CGGTTEQGG) (SEQ ID NO: 2) (cyclic peptide: head to tail cyclization (amide condensation of the linear peptide)); assay: indirect ELISA, peptide coated 0.1 µg/well, neat hybridoma supernatant
T1 construct: Coated on ELISA plates
T1 peptide: CGGTTEQGG
Procedure: (§1) ELISA plates were coated with 0.1 μg/well with peptide cyclo([…]) (SEQ ID NO: 2) or cyclo(CGTTEQG) (SEQ ID NO: 3) or the linear versions thereof at 100 μL/well in carbonate Coating Buffer (pH 9.6) overnight at 4 C. In other assays, cyclo([…]) (SEQ ID NO: 32) or cyclo (CGTTEGG) (SEQ ID NO: 29) were also used to coat the ELISA plates.
(§2) The plates were blocked with 3% skim milk powder in PBS for 1 hour at room temperature. The primary antibody, hybridoma tissue culture supernatant neat at 100 uL/well, was incubated for 1 hour at 37 C with shaking. The secondary antibody, goat anti-mouse IgGy-HRP at a 1:10,000 dilution was added at 100 uL/well in PBS-Tween and incubated for 1 hour at 37 C with shaking. All washing steps were performed for 30 mins with PBS-Tween. TMB Substrate was added at 50 uL/well, developed in the dark and stopped with equal volume 1M HCl. The development time was 1-2 min and the plate was read at 450 nm.

[2] = biological target: T2, Linear … (SEQ ID NO: 2); assay: as above
T2 sequence (peptide): CGGTTEQGG

[3] = biological target: T3, BSA (bovine, UniProt P02769 25-607); assay: screen of hybridoma supernatants
T3 construct: Carrier protein used as negative screening antigen; also called bovine serum albumin

[4] = biological target: T4, TDP-43 in human spinal cord homogenates of sporadic ALS patients (human, UniProt Q13148 1-414, limits assumed); assay: dot blot of spinal cord homogenates on PVDF
T4 construct: Tissue homogenate dotted on PVDF; also called sALS samples; pathogenic TDP43 in spinal cord homogenates from ALS patients

[5] = biological target: T5, Linear CGGTTEQGG (SEQ ID NO: 2); assay: indirect ELISA, peptide coated 0.1 µg/well, neat hybridoma supernatant
T5 construct: Coated on ELISA plates; also called linear peptide
T5 peptide: CGGTTEQGG
Procedure: as §1, §2

T3 sequence (P02769 25-607 limits assumed): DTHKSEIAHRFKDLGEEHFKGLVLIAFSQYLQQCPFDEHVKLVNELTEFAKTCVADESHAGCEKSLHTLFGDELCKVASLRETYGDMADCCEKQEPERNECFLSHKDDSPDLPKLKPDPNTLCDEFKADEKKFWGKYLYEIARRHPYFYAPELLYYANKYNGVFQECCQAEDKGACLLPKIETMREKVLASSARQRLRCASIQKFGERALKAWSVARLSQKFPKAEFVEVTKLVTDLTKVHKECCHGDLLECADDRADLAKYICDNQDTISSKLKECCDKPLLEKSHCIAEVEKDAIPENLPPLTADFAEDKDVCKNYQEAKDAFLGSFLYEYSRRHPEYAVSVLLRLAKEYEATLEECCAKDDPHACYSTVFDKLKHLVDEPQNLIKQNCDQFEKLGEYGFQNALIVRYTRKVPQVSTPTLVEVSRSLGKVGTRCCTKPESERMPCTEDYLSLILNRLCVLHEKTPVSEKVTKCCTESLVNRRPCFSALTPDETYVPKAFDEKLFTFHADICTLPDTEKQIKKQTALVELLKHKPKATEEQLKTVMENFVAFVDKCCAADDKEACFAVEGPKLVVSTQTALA
T4 sequence (Q13148 whole entry): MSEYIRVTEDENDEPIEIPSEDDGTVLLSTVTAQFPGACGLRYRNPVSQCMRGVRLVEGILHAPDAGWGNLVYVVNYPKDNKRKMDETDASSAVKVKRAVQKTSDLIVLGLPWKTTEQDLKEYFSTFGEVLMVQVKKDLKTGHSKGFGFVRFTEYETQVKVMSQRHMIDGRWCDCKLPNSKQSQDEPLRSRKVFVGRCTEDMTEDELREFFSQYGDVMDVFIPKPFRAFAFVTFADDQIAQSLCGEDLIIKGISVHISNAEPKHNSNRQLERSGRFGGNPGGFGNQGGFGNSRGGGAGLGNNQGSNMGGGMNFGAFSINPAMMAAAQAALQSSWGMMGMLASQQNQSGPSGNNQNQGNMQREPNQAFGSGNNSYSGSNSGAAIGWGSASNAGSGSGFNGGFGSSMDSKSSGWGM

B1: 9C5 (antibody, V domains shown)
VH: EVQLVESGGGLVKPGGSLKLSCAASGFTFSDYYMYWVRQTPEKRLEWVATISDGGSYTSYPDSVKGRFTISRDNAKNNLYLQMSSLRSEDTAMYYCARDYYGSSSYTSGFAYWGQGTLVTVSA
VL: DVLMTQTPLSLPVSLGDQASISCRSSQSIVHSNGNTYLEWYLQKPGQSPKLLIYKVSNRFSGVPDRFSGSGSGTDFTLKISRVEAEDLGVYYCFQGSHVPGTFGGGTKLEIK
notes: IgG3, kappa; also called clone 9C5; antibody 6
With B1 the “ELISA signal (read at 450 nm)” value [1] was 2.29 absorbance at 450 nm, the ELISA signal (read at 450 nm) (absorbance at 450 nm) [2] was 0.115 and the binding result [3] was “no binding”.

B2: 6C5 (antibody, V domains shown)
VH: EVKLVESGGGLVQPGGSLKLSCATSGFTFSDYYMYWVRQTPEKRLEWVAYISNGGGSTYYPDTVKGRFTISRDNAKNTLYLQMSRLKSEDTAMYYCAREGGTAWFAYWGQGTLVTVSA
VL: DVLMTQTPLSLPVSLGDQASISCRSSQSIVHSNGNTYLEWYLQKPGQSPKLLIYKVSNRFSGVPDRFSGSGSGTDFTLKISRVEAEDLGVYYCFQGSHVPYTFGGGTKLEIK
notes: IgG1, kappa; also called Antibody 6C5
For B2, the binding result [4] was “binds”, the “ELISA signal (read at 450 nm)” value [1] was 1.1 absorbance at 450 nm and the “ELISA signal (read at 450 nm)” value [5] was 0.191 absorbance at 450 nm. B2: no binding [3].

B3: 3H5 (antibody, V domains shown)
VH: QIQLVQSGPELKKPGETVKISCKASGYTFTDYSMHWVKQAPGKGLKWMGWINTETGEPTYADDFKGRFAFSLETSASTAYLQINNLKNEDTATYFCASRRWYPYYFDYWGQGTTLTVSS
VL: QAVVTQESALTTSPGETVTLTCRSSTGAVTTSNYANWVQEKPDHLFTGLIGGPNNRAPGVPARFSGSLIGDKAALTITGAQTEDEAIYFCALWYSNHWVFGGGTKLTVL
notes: IgG1, lambda; also called clone 3H5; antibody 4
In the case of B3, the “ELISA signal (read at 450 nm)” value [1] is reported as 2.83 absorbance at 450 nm, the ELISA signal (read at 450 nm) (absorbance at 450 nm) [2] is reported as 0.068 and the binding result [3] is reported as “no binding”.

B4: 11F3 (antibody, V domains shown)
VH: QIQLVQSGPELKKPGETVKISCKASGYTFTDYSMHWVKHSPGKGLKWMGWINTETGEPTYADDFKGRFAFSLETSASTAYLQINNLKNEDTATYFCARGYGNWFAYWGQGTLVTVSA
VL: QIVLTQSPAIMSASLGERVTMTCTASSSVSSSYLHWYQQKPGSSPKLWIYSTSNLASGVPARFSGSGSGTSYSLTISSMEAEDAATYYCHQYHRSPLTFGAGTKLELK
notes: IgG1, kappa; also called clone 11F3; antibody 3
For B4, the “ELISA signal (read at 450 nm)” value [1] was 1.1 absorbance at 450 nm, the ELISA signal (read at 450 nm) (absorbance at 450 nm) [2] was 0.071 and the binding result [3] was “no binding”.
